Among the data in PMC4475061 (2015) are response values, retold here.

B1: CHMP1B WT fused to the Gal4 DNA-binding domain [human] / CHMP1A (positive-control partner of the Gal4-CHMP1B constructs in the two-hybrid assay) [human] (parent complex)
chain 1: MEKHLFNLKFAAKELSRSAKKCDKEEKAEKAKIKKAIQKGNMEVARIHAENAIRQKNQAVNFLRMSARVDAVAARVQTAVTMGKVTKSMAGVVKSMDATLKTMNLEKISALMDKFEHQFETLDVQTQQMEDTMSSTTTLTTPQNQVDMLLQEMADEAGLDLNMELPQGQTGSVGTSVASAEQDELSQRLARLRDQV
chain 2: MDDTLFQLKFTAKQLEKLAKKAEKDSKAEQAKVKKALLQKNVECARVYAENAIRKKNEGVNWLRMASRVDAVASKVQTAVTMKGVTKNMAQVTKALDKALSTMDLQKVSSVMDRFEQQVQNLDVHTSVMEDSMSSATTLTTPQEQVDSLIMQIAEENGLEVLDQLSQLPEGASAVGESSVRSQEDQLSRRLAALRN
B2: CHMP1B WT fused to the Gal4 DNA-binding domain [human] / ULK3 fused to the VP16 activation domain [human] (parent complex)
chain 1: B1 chain 1
chain 2: MAGPGWGPPRLDGFILTERLGSGTYATVYKAYAKKDTREVVAIKCVAKKSLNKASVENLLTEIEILKGIRHPHIVQLKDFQWDSDNIYLIMEFCAGGDLSRFIHTRRILPEKVARVFMQQLASALQFLHERNISHLDLKPQNILLSSLEKPHLKLADFGFAQHMSPWDEKHVLRGSPLYMAPEMVCQRQYDARVDLWSMGVILYEALFGQPPFASRSFSELEEKIRSNRVIELPLRPLLSRDCRDLLQRLLERDPSRRISFQDFFAHPWVDLEHMPSGESLGRATALVVQAVKKDQEGDSAAALSLYCKALDFFVPALHYEVDAQRKEAIKAKVGQYVSRAEELKAIVSSSNQALLRQGTSARDLLREMARDKPRLLAALEVASAAMAKEEAAGGEQDALDLYQHSLGELLLLLAAEPPGRRRELLHTEVQNLMARAEYLKEQVKMRESRWEADTLDKEGLSESVRSSCTLQ
B3: ULK3 fused to the VP16 activation domain [human] / CHMP1B WT fused to the Gal4 DNA-binding domain [human] (parent complex)
chain 1: B2 chain 2
chain 2: B1 chain 1
B4: ULK3 fused to the VP16 activation domain [human] / CHMP1A fused to the Gal4 DNA-binding domain [human] (parent complex)
chain 1: B2 chain 2
chain 2: B1 chain 2

In the first test the parent is B1. Kind of test: yeast two-hybrid (β-galactosidase activity); read off a plot.
As to chain 1 L185A, chain 1 S186A, chain 1 Q187A, the response is about 0.62.
Still for that read-out and setting: then chain 1 R191A, chain 1 L192A, chain 1 R193A, with about 0.54; and chain 1 R188A, chain 1 L189A, with about 0.77; and chain 1 D194A, chain 1 Q195A, chain 1 V196A, with about 0.48.

In another test the parent is B2. Described as above.
Consider chain 1 R191A, chain 1 L192A, chain 1 R193A, for which the response was about 0.028.

Another test covers variants of B3. Described as above.
Turning to chain 1 V338D, the response was about 0.061.
On the same count and under the same terms, to chain 1 M434D belongs about 0.051.

A further test covers variants of B4. The description is as above.
As for chain 1 V338D, the response is about 0.075.
